From the DeepSol protein solubility set

test: soluble on expression in E. coli; label from the status in PepcDB or PDB records

Sequence | soluble on expression in E. coli
MATIDSMNKDTTRLSDGPDWTFDLLDVYLAEIDRVAKLYRLDTYPHQIEVITSEQMMDAYSSVGMPINYPHWSFGKKFIETERLYKHGQQGLAYEIVINSNPCIAYLMEENTITMQALVMAHACYGHNSFFKNNYLFRSWTDASSIVDYLIFARKYITECEERYGVDEVERLLDSCHALMNYGVDRYKRPQKISLQEEKARQKSREEYLQSQVNMLWRTLPKREEEKTVAEARRYPSEPQENLLYFMEKNAPLLESWQREILRIVRKVSQYFYPQKQTQVMNEGWATFWHYTILNHLYDEGKVTERFMLEFLHSHTNVVFQPPYNSPWYSGINPYALGFAMFQDIKRICQSPTEEDKYWFPDIAGSDWLETLHFAMRDFKDESFISQFLSPKVMRDFRFFTVLDDDRHNYLEISAIHNEEGYREIRNRLSSQYNLSNLEPNIQIWNVDLRGDRSLTLRYIPHNRAPLDRGRKEVLKHVHRLWGFDVMLEQQNEDGSVELLERCPPRMGNL | not soluble
MATIGTFKKSGNEFSGEIVTLSVQAKGVRIVPESNRSGDNAPSHRVYVGRAEIGAAWSKTSNEGREYLGLKLDDPSFTAPIYANLFDDEEGDTFSLIWSRAAKRNGD | not soluble
MATIHPPAYLLDQAKRRFTPSFNNFPGMSLVEHMLLNTKFPEKKLAEPPPGSGLKPVVGDAGLPILGHMIEMLRGGPDYLMFLYKTKGPVVFGDSAVLPGVAALGPDAAQVIYSNRNKDYSQQGWVPVIGPFFHRGLMLLDFEEHMFHRRIMQEAFVRSRLAGYLEQMDRVVSRVVADDWVVNDARFLVYPAMKALTLDIASMVFMGHEPGTDHELVTKVNKAFTITTRAGNAVIRTSVPPFTWWRGLRARELLENYFTARVKERREASGNDLLTVLCQTEDDDGNRFSDADIVNHMIFLMMAAHDTSTSTATTMAYQLAAHPEWQQRCRDESDRHGDGPLDIESLEQLESLDLVMNESIRLVTPVQWAMRQTVRDTELLGYYLPKGTNVIAYPGMNHRLPEIWTDPLTFDPERFTEPRNEHKRHRYAFTPFGGGVHKCIGMVFDQLEIKTILHRLLRRYRLELSRPDYQPRWDYSAMPIPMDGMPIVLRPR | not soluble
MATKTKTTEAPVLPLNQILAGDCIETMRSLPECSVDLIFADPPYNLQLRGDLHRPDNSRVDAVDDHWDQFSSFSVYDQFTREWLAAARRLLKPNGAIWVIGSYHNIFRVGAALQDQGFWILNDVVWRKSNPMPNFKGKRLTNAHETLIWASKQEASKYTFNYEALKALNEGVQMRSDWVIPICTGHERLKDEQGDKAHPTQKPEALLHRVMVATTNPGDVVLDPFFGTGTTGAVAKMLGRDFIGIEREESYRRIAAERLSRVRRYDASALEVSGSKRAEPRVPFGQLVERGMLRPGEELYSMNNRHKAKVRADGTLIGNDVKGSIHQVGAALEGAPSCNGWTYWCYKREGKMIPIDILRQQIRAEMEDPRPN | not soluble
MATLFIADLHLQTEEPAIVAGFLRFLAVEARQADALYILGDLFEAWIGDDDPNPLHREMAVAIKSLVDSGVPCFFIHGNRDFLIGKRFARESGMILLPQEKVLDLYGRNVLIMHGDTLCTDDAGYQAFRAKVHNPWVQRLFLTLPLFIRRRIAARMRAGSKAANSSKSLDIMDVNAQTVVAEMEKHRVQWLIHGHTHRPAVHELSANDQPAFRVVLGAWHHEGSMVKVTPDNVELIAFPLLEHHHHHH | not soluble
MATLRIGLVSISDRASSGVYQDKGIPALEEWLTSALTTPFELETRLIPDEQAIIEQTLCELVDEMSCHLVLTTGGTGPARRDVTPDATLAVADREMPGFGEQMRQISLHFVPTAILSRQVGVIRKQALILNLPGQPKSIKETLEGVKDAEGNVVVHGIFASVPYCIQLLEGPYVETAPEVVAAFRPKSARRDVSE | soluble
MATMTTKSHCTFNPDYYQDVWQRFGEEEYDVVVIGGGSVGAGAGLDAAIRGLKVAVVESRDFAAGTSSRSSKMFHGGLRYLAMLDFKLVAESLHERELNMSTLAPHLVKPLKFLFPLTHHVWERVMMFGGFTLYDLMGGAKSVPMQKHYSRKGTLAMAPGLKDDAVVGSVRYFDTLVDDARHTMTVLRTAGELGADVRPSTQVVGFEKDGQRVVGAILQDTDTGEQTTIRGKVFINATGVWNDHIEKLAGGNGPFSVHASKGVHIVVPKNVFDADAAMCFVTEKSVLFVIPWGEYWIIGTTDTDWDLNRADPAPTAADINYILDEVNQRVRRPIQHSDIVGVYSGLRPLLSGKSDTTTKLSRNHAVAKVMPGLVSVAGGKYTTYRVIGKDAVDLATEDLDFRVPASESERTPILGADGYHALQNQAPRIARTFGTTEDVVEHLLGRYGSLVHEVLEPSVDKPELLEPIPGAPGYIKAEAVYAVTHEGALHVEDIVERRLRAGIEYADRGVAAAPAIAELVADYLGWDAERTAAEVTAFTDRVSAEIAAEKELTDKAANEHIVAGSAVRSYVDVSGDNLEHHHHHH | soluble
MATQTAVTATTVPQGSPSVTGSASQGGILNSARQFFSLAAPKVEKDKEFSFRFLTSPLRSKPAATVNADNFYMYACGSINMP | not soluble
MATVGGAFKDSLTQAQKDELHQIALKIVQDGKGILAADESTGTIGKRLDAINLENNETNRQKYRQLLFTTPNLNQHISGVILYEETFHQSTDKGEKFTDLLIKQGIVPGIKLDLGVVPLAGTIGEGTTQGLDKLAERAAAFKKGGCGFAKWRCVLNIGTHTPSHLGMLENANVLARYASICQANGLVPIVEPEVLCDGEHDLARAQKVTEQVLAFVYKALADHHVYLEGTLLKPNMVTPGQSSASKASHEAIGLATVTALRRGVPAAVPGITFLSGGQSELDATANLNAINSVQLGKPWKLTFSYGRALQASVLKAWGGKDENIAAAQKTLLHRSKANGDASLGKYAGEDAAGAAAESLFVAKHSY | not soluble
MAVENITMPQLGESVTEGTISKWLVNVGDHVNKYDPLAEVMTDKVNAEVPSSFTGIVKELIAGEGDTLAVGEVVCVIQVEGADEVAATAVEEKTKEEPKAEVNTPEKAPKAKQPTDGKPRFSPAVLKLAGEHNVDLDLVEGTGANGRITRKDILKLVESGNIPQAGAVKKEEAVAAVVEARPEAPKAAPVAQKVEAAKPVSVPTMPGDIEIPVTGVRKAIAANMLRSKHEAPHAWMMIEVDVTNLVSYRNSIKGDFKKREGFNLTFFAFFVKAVAQALKEYPQINSMWAGDKIVQKKDINLSIAVATEDELFVPVIKHADEKTIKGIAREITELAGKVRTKSLKADEMQGGTFTINNTGSFGSVQSMGIINYPQAAILQVESIVKRPVIMENGMFGARDMVNLCLSLDHRVLDGLICGKFLGRVKEILENTSENNTSVY | not soluble
MAVGGGIGGLLLVGLFLLLGGNPAEIDQVLGGDQTQIESGESTGAGDFDHCQTGADANASDDCRLYYTSFSVNEMWQTLLPAQAGIEYTEPTLTLFKNSTQTGCGFASASTGPFYCPSDQDAYFDLTFFDQMRQFGAENAPLAQMYIVAHEYGHHVQNLEGTLGLSNYNDPGADSNAVKIELQADCYAGIWANHSSEGPDPLLQPITESELDSALLAASAVGDDNIQQRSGGDVNPESWTHGSSQQRKDAFLAGYNTGQMSACDFLGRGVYNDA | not soluble
MAVKINDLTLPKEKLENEYQVVQVSLWQKDGEALGWTYECVLPKLRFEKISVKVKSEAPVITKETLDEKGMAIVRFDNLMITPWGRVNGQFVSYGLTATAYKATLVPNK | not soluble
MAVRFASLGSGSDGNALLVESTDGTTSTRILLDCGFGIRETVRRLERLGCAPASLDAILVTHEHGDHIGSAYAFAAKYSVPVWTSHGTYRATASLRGADRAAVRFCRADDAFSIGDLRILPYTVPHDAREPLQFIFDDGARRLGVLTDAGMSTEYLCGHLTGLHAFVLECNHDREMLANSAYPWSLKQRIGGDFGHLANDIAAAILARVRHDGLHTVVAAHLSKQNNTPELAAAAIASALGVPAGDVPIADQEAGLGWQAVLEHHHHHH | not soluble
MAVSATGFEGFEKRLEISFFETTDFLDPQGKSLRSLTKSQLDEILTPAECTIVSSLTNSFVDSYVLSESSLFVYPYKIIIKTCGTTKLLLSIPHILRLADSLCLTVKSVRYTRGSFIFPGAQSYPHRSFSEEVALLDDYFGKLNAGSKAFVMGGSDNNPQRWHVYSASSTEESAVCDKPVYTLEMCMTGLDNIKASVFFKTNSVSASEMTISSGIRNILPGSEICDFNFEPCGYSMNSIEGDAVSTIHVTPEDGFSYASFETVGYDLKALNFKELVDRVLVCFGPEEFSVAVHANLGTEVLASDCVADVNGYFSQERELEELGLGGSVLYQRFVKTVECCSPKSTLGFC | not soluble
MAWGQIAVVSPLVNIPVNTIEQSLLRQLPGCWGCKDKDSVFRYVNQEYAELLGHASPEECIGKTDFEMSSPTTECAQEFQRQDKHVIETGESLKILDIHPYPDGRWRAHIFTKTPWRDEQGNTLGTIFYGRELTDTAVIEVGYWVCRAIGTDMNHQSIFRFSNLNPKPEKLTCREQETLFLLLYGKKPQFISQVMGISTKTVEGHVARLRNKFEANSKNELIDKAMEAGYGSVVPKTLLKHQLSVVLNGER | not soluble
MAYQRIRQPKLSDVIEQELERLIVEGTLSPGQQLPPERELAKQFEVSRPSIREAIQRLEAKRLLTRRQGGGTFVSDRIWQSFSDPLLNLLSSHSETQLDLLEARHALEGICAYFAALRGTEEDFARIQHCVTRIAEAQALNNVDEEAERVMAFLIAITEAAHNVVLLHIVRSLSPLLEQNIRQNFKLLHRRPEAVEKVSKHRANIVDAIVSGQPEKAREMSHSHLAYIEETLLDLTREQTRRERSLRRIQQGNEPQ | soluble
MAYQVTTFYHFTRLNCLAEKQSRWQELGDRLGLKGTILLAEEGVNATIAGESAAIEEMVKIMAADLGLTSVPQRHSWAKTIPFQRMKVKIKPEIVSLGQPQVNPEKQVGTYVSPQQWNQLLQDPDVVVIDTRNDYEVAIGTFQGAVNPCTKKFRQFPDYVKNNLDQQKNKKVAMFCTGGIRCEKASAYLLEEGFAEVYHLRGGILHYLETIAPEESLWQGECFVFDERVAVQEGLKVGSHALCDHCGYPLRVGDLAEIRYAVRHCPQCGLTVAVSNELLEHHHHHH | soluble
MAYWLVKSEPSVWSWDQQVAKGAAGEAWTGVRNHSAKLHMVAMRRGDRAFYYHSNEGKEIVGIAEIIREAYPDPTDASGKFVCVDIKADKPLKTPVTLAAVKAEPRLADMALMKYSRLSVQPVTAEEWKLVCKMGGLLEHHHHHH | not soluble
MCAHEGKQYKNDTTFISQGSFRMKCVTFKNLTSTLEVISCITPAGVEISIGTQLEEGDKVFECTPGNVTLKSTPGQTGKCRGVYSVGDTWVEDSFRLLCEPYGKVNLKSCISKEGVEIPLGEARRVPAGYAMECVTVNGNVALQTAKTFDCETGTGEIKKFGDTWNEGNFVRRCANYGVSAIIGCYADGVGSIGLNQNMTSGDFLYMCINQNEQFKFRTLKAT | not soluble
MCEATYGGASPQIRRQRFVILGMSDDPHPFFPPAAMTAIASGKIFSGGKRHHEIVRGLLPADAEWIDITVPLDDVFARYREYEEIVVFASGDPLFFGFANTVMNRLPDAVVTVYPTFNSLQMLAHALRMPYHDMRIVSLTGRPWHEFDRALIERAEKIGILTDHEHTPSAIAMRMLDYGYEDYTMSVGTRMGNPQEQCLDTFSLREAADRDFERPNCVILSATRPFVCSRAPLGLSESAFMPLNGRTKMITKMPFRLVSLSCLELHRASSFWDIGFCTGSVSIEAKLNFPHLHITAFEIRPEGAELMPVNSRRFGAPGIAYRIGDFMEEDISSLAPPDAVFIGGHGGRLVEMIAKVHSVMTKGGLLVFNSVSEESRHLFLTGIEACGMELLSSIRLTADGNNPIDILQARKKE | not soluble
